# US11786578B2, “Modified relaxin polypeptides and their uses” (AMBRX, INC., priority 2010, dated 2023)
# Where two headings read alike, the source gives them in different places.
# B1: INSL3: endogenous ligand for RXFP2 (insulin like 3 protein), R&D Systems (protein, UniProt P51460 21-55; P51460 106-131, looked up)
# Insulin-like 3 B chain: LGPAPTPEMREKLCGHHFVRALVRVCGGPRWSTEA
# Insulin-like 3 A chain: AAATNPARYCCLSGCTQQDLLTLCPY
# Tests used:
# [1] = in vivo; details: for Mean Conc.: male SD rats
# From the text: This example evaluates the pharmacokinetic properties of wild-type (WT) Relaxin compound following a single subcutaneous injection in SD rats.
# SD Rats were received from Charles River Laboratories (CRL) at approximately […] of age (approximately 280 g at study start). The animals were received having been jugular vein catheterized at CRL. Animals then acclimated for 3 days prior to being placed on study.
# Animals received a single subcutaneous injection on day 1 and PK samples were collected over the subsequent 12 hours. Blood samples were taken from animals treated with WT rhRelaxin for analysis of serum concentration according to the following sampling schedule (sampling times are approximate): Day 1: pre-dose, 0.33, 0.66, 1, 1.5, 2, 3, 4, 5, 6, 9 and 12 hours post-dose.
# Compound concentrations were measured using a bridging ECLA based on an assay which was developed at Ambrx. Concentrations were calculated using a standard curve generated from the corresponding dosed compound and reported in an excel spreadsheet format (see appendix). Pharmacokinetic parameters were estimated using the modeling program WinNonlin (Pharsight, version 5.1). Noncompartmental analysis for individual animal data with linear-up/log-down trapezoidal integration was used, and concentration data was uniformly weighted.
# Concentration versus time curves were evaluated by non-compartmental analysis (Pharsight, version 4.1). N=5 rats per group, terminal HL, terminal half-life; Cmax, maximum serum concentration measured; Tmax, time at which Cmax occurred: AUCinf, area under the concentration-time curve for all serum sample/timepoints extrapolated to infinity; Cl, apparent total serum clearance; Vz, apparent volume of distribution during terminal phase. Numbers are mean with SD in parentheses.
# [2] = IV; cited from earlier work
# [3] = molecular target: T1, human RXFP3 (Homo sapiens, UniProt Q9NSD7); assay: Inhibition of forskolin-induced cAMP in human RXFP3/CHO-K1 stable line; assay type: cell-based; details: CHO-K1 stable line
# T1 sequence (Q9NSD7 1-469): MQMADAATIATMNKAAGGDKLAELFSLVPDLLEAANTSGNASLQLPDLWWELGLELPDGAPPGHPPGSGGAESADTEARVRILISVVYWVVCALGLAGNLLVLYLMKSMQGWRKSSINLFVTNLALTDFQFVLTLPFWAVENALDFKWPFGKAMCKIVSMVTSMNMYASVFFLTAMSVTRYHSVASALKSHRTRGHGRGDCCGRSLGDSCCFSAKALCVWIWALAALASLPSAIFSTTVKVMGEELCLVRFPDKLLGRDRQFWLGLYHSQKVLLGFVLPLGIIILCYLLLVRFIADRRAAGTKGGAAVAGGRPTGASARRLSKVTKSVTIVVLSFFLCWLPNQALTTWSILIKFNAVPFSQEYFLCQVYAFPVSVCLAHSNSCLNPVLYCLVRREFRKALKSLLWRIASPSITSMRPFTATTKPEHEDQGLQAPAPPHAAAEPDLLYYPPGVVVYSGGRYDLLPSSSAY
# From the text: (§1) The RXFP cDNAs, RXFP family members, as well as species orthologs, were obtained from commercially available cDNA clones or amplified from tissue RNAs as follows. Human RXFP1: A cDNA clone was obtained from OpenBiosystems (MHS4426-99239031. Human RXFP2: A cDNA clone for transcript variant 1 was obtained from OpenBiosystems (OHS4559-99620528). Cynomolgus monkey RXFP1: The cDNA was cloned out of Mauritian cyno brain RNA by RT-PCR using the following primers: forward: 5′-[…]-3′ (SEQ ID NO: 37); reverse: 5′-[…]-3′ (SEQ ID NO: 38). Dog RXFP1: The cDNA was cloned out of dog brain RNA by RT-PCR using the following primers: forward: 5′-[…]-3′ (SEQ ID NO: 39); reverse: 5′-[…]-3′ (SEQ ID NO: 40). Rat RXFP1: The cDNA was cloned out of Sprague Dawley rat brain RNA by RT-PCR using the following primers: forward: 5′-[…]-3′ (SEQ ID NO: 41); reverse: 5′-[…]-3 (SEQ ID NO: 42)′. Human RXFP3: A Gateway entry clone in vector pDONR221 was obtained from Invitrogen (IOH28381). Human RXFP4: A Gateway entry clone in vector pDONR201 was obtained. Mouse RXFP1: A Gateway entry clone in vector pDONR223 was obtained from OpenBiosystems (OMM4760-101549000). Using standard procedures (Gateway LR recombination), the RXFP entry clones were transferred into expression vector pEF-DEST51 (Invitrogen). In contrast to the all other RXFP clones, human RXFP4 was transferred into pcDNA3.1 (Invitrogen). […]
# [4] = molecular target: T2, human RXFP4 (Homo sapiens, UniProt Q8TDU9); assay: Inhibition of forskolin-induced cAMP in human RXFP4/CHO-K1 stable line; assay type: cell-based; details: CHO-K1 stable line, inhibition of forskolin-induced cAMP
# T2 construct: expressed in transfected cells
# From the text: The RXFP cDNAs, RXFP family members, as well as species orthologs, were obtained from commercially available cDNA clones or amplified from tissue RNAs as follows. Human RXFP1: A cDNA clone was obtained from OpenBiosystems (MHS4426-99239031. Human RXFP2: A cDNA clone for transcript variant 1 was obtained from OpenBiosystems (OHS4559-99620528). Cynomolgus monkey RXFP1: The cDNA was cloned out of Mauritian cyno brain RNA by RT-PCR using the following primers: forward: 5′-[…]-3′ (SEQ ID NO: 37); reverse: 5′-[…]-3′ (SEQ ID NO: 38). Dog RXFP1: The cDNA was cloned out of dog brain RNA by RT-PCR using the following primers: forward: 5′-[…]-3′ (SEQ ID NO: 39); reverse: 5′-[…]-3′ (SEQ ID NO: 40). Rat RXFP1: The cDNA was cloned out of Sprague Dawley rat brain RNA by RT-PCR using the following primers: forward: 5′-[…]-3′ (SEQ ID NO: 41); reverse: 5′-[…]-3 (SEQ ID NO: 42)′. Human RXFP3: A Gateway entry clone in vector pDONR221 was obtained from Invitrogen (IOH28381). Human RXFP4: A Gateway entry clone in vector pDONR201 was obtained. Mouse RXFP1: A Gateway entry clone in vector pDONR223 was obtained from OpenBiosystems (OMM4760-101549000). Using standard procedures (Gateway LR recombination), the RXFP entry clones were transferred into expression vector pEF-DEST51 (Invitrogen). In contrast to the all other RXFP clones, human RXFP4 was transferred into pcDNA3.1 (Invitrogen). For each construct, the RXFP cDNA, as well as its proper insertion into the expression vector, was verified by DNA sequencing.
# CHO-K1 cells (ATCC #CRL-9618) were prepared for stable line generation by propagating at 37° C. with 5% CO2 in F-12 plus GlutaMAX-I medium (GIBCO #31765) supplemented with 10% fetal bovine heat-inactivated serum (Invitrogen #16140), and 1× Antibiotic-Antimycotic (GIBCO #15240-096). CHO-K1 cells were transfected with 12 μg of the appropriate expression construct plasmid using the FuGENE® 6 reagent (Roche #11814443 001) and the protocol provided by the manufacturer. One day post-transfection cells were replated into medium containing 10 μg of Blasticidin S HCl per mL (GIBCO #A11139-02). […]
# [5] = tested on: primary human cardiac fibroblasts (NHCF-V); details: 1 nM
# Experimental: NHCF-V cells were isolated from the ventricle of normal, adult heart tissue. Cells stained positive for smooth muscle α-actin and expressed ≥90% collagen I and ≤10% Von Willebrand factor VIII. Cells at passages 3 through 6 were used for the real-time quantitative reverse transcription-polymerase chain reaction (qRT-PCR) studies. Cells were cultured in FGM™-3 BulletKit™ (Cat. #: CC-4526, Lonza) containing 10% FBS complete medium. At confluence, cells were split and cultured in 6-well plates at a density of 150,000/well for 24 hr in complete medium.
# Alter treatment, cells in 6-well plates were harvested or total RN A extraction and qRT-PCR analysis. Total RNA was extracted using the RNeasy Mini Kit (Cat. #: 74106, Qiagen) according to the manufacturer's protocols including the on-column removal of genomic cDNA. Real-time qRT-PCR was performed in a two-step manner; cDNA synthesis and real-time detection were carried out in a PTC-100 Thermal Cycler (MJ Research) and an ABI Prism 7700 Sequence Detection System (Applied Biosystems), respectively. TaqMan Universal PCR Master Mix (Applied Biosystems) was used in subsequent PCR reactions according to the manufacturer's protocols. All qRT-PCR reactions were performed in duplicate. […] Data were analyzed for significance by two-way ANOVA followed by a Bonferroni's multiple comparison test using GraphPad Prism Software, version 5.0.
# [6] = molecular target: T3, human RXFP2 (Homo sapiens, UniProt Q8WXD0); assay: cAMP assay in human RXFP2/CHO-K1 stable line; assay type: cell-based; details: CHO-K1 stable line
# From the text: as §1
# [7] = molecular target: T3, human RXFP2; details: literature value; read-out: EC50 value reported in the literature, human RXFP2; cited from earlier work
# [8] = 0.5 mg/kg SC, SD rats, mean (SD)
# [9] = Sprague-Dawley, rat, serum, sc, 0.5 mg/kg
# T3 sequence (Q8WXD0 whole entry): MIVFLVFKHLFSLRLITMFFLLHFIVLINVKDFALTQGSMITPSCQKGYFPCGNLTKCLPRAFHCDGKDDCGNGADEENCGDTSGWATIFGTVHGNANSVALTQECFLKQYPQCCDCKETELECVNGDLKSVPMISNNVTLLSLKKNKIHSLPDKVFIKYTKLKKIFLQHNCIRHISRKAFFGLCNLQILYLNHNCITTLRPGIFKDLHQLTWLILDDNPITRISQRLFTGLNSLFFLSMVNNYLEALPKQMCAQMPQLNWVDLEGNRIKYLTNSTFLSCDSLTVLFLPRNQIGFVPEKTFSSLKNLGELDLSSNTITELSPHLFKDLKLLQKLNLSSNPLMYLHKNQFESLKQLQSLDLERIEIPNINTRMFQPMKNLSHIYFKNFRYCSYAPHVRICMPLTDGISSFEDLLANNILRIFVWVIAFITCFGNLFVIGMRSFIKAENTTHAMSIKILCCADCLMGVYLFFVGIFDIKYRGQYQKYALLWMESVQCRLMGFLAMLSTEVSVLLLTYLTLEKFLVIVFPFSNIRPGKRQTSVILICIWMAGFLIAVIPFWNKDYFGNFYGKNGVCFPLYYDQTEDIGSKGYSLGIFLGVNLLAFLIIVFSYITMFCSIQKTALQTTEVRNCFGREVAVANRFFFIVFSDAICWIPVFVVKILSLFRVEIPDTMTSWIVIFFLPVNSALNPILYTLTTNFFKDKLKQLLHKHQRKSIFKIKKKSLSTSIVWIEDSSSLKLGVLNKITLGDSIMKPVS
# T2 sequence (Q8TDU9 whole entry): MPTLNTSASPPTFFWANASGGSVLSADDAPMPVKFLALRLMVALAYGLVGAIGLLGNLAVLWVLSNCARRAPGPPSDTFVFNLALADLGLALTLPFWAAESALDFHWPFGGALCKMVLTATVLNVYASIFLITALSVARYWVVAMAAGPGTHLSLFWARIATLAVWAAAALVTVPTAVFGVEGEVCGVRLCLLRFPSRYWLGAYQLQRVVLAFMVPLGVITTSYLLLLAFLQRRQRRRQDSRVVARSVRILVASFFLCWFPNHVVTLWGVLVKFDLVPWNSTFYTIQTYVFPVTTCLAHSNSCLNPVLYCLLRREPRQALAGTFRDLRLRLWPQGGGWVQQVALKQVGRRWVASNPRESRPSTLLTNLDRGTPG
molecule,measurement,setting,value
CC[C@H](C)[C@@H]1NC(=O)[C@H](C)NC(=O)[C@H]([C@@H](C)CC)NC(=O)[C@H](CCC(N)=O)NC(=O)[C@H](C)NC(=O)[C@H](CCCNC(=N)N)NC(=O)[C@H](C(C)C)NC(=O)[C@H](CC(C)C)NC(=O)[C@H](CCC(=O)O)NC(=O)[C@H](CCCNC(=N)N)NC(=O)CNC(=O)[C@@H](NC(=O)[C@H](CC(C)C)NC(=O)[C@H](CCCCN)NC(=O)[C@@H](NC(=O)[C@@H](NC(=O)[C@H](CCC(=O)O)NC(=O)[C@H](CCC(=O)O)NC(=O)[C@H](CCSC)NC(=O)[C@H](Cc2c[nH]c3ccccc23)NC(=O)[C@H](CO)NC(=O)[C@@H](N)CC(=O)O)C(C)C)[C@@H](C)CC)CSSC[C@@H]2NC(=O)[C@@H](NC(=O)[C@H](CCCCN)NC(=O)[C@H](CC(N)=O)NC(=O)[C@H](C)NC(=O)[C@H](CC(C)C)NC(=O)[C@H](C)NC(=O)[C@H](CO)NC(=O)[C@H](Cc3ccc(O)cc3)NC(=O)[C@H](CC(C)C)NC(=O)[C@@H](N)CCC(N)=O)CSSC[C@H](NC(=O)CNC(=O)[C@H](C(C)C)NC(=O)[C@H](Cc3c[nH]cn3)NC2=O)C(=O)N[C@@H]([C@@H](C)O)C(=O)N[C@@H](CCCCN)C(=O)N[C@@H](CCCNC(=N)N)C(=O)N[C@@H](CO)C(=O)N[C@@H](CC(C)C)C(=O)N[C@@H](C)C(=O)N[C@@H](CCCNC(=N)N)C(=O)N[C@@H](Cc2ccccc2)C(=O)N[C@H](C(=O)O)CSSC[C@@H](C(=O)NCC(=O)N[C@@H](CCSC)C(=O)N[C@@H](CO)C(=O)N[C@H](C(=O)N[C@@H](Cc2c[nH]c3ccccc23)C(=O)N[C@@H](CO)C(=O)O)[C@@H](C)O)NC1=O [RLX-D-WT],CL (mL/hr),[1]; [8],1006 (185) mL/hr
same,Vz (mL/kg),[1]; [8],1159 (284) mL/kg
same,AUC(0-inf),[1]; [9],509 ng·h/mL
same,Cmax,[1]; [9],258 ng/mL
same,MRT,[1]; [9],93.6 min
same,Tmax,[1]; [9],30 min
same,half-life,"[1]; male, SD, rat, serum, sc, 0.5 mg/kg",48 min
same,Mean Conc.,"[1]; serum, 0.5 mg/kg SC, 6 hr",BQL
same,Mean Conc.,"[1]; serum, 0.5 mg/kg SC, 9 hr",BQL
same,Mean Conc.,"[1]; serum, 0.5 mg/kg SC, 12 hr",BQL
same,Mean Conc.,"[1]; serum, 0.5 mg/kg SC, pre-dose (PD)",BQL
same,half-life of intravenously administrated Relaxin 2 in humans,[2],less than 10 minutes
CC[C@H](C)[C@@H]1NC(=O)[C@H](C)NC(=O)[C@H]([C@@H](C)CC)NC(=O)[C@H](CCC(N)=O)NC(=O)[C@H](C)NC(=O)[C@H](CCCNC(=N)N)NC(=O)[C@H](C(C)C)NC(=O)[C@H](CC(C)C)NC(=O)[C@H](CCC(=O)O)NC(=O)[C@H](CCCNC(=N)N)NC(=O)CNC(=O)[C@@H](NC(=O)[C@H](CC(C)C)NC(=O)[C@H](CCCCN)NC(=O)[C@@H](NC(=O)[C@@H](NC(=O)[C@H](CCC(=O)O)NC(=O)[C@H](CCC(=O)O)NC(=O)[C@H](CCSC)NC(=O)[C@H](Cc2c[nH]c3ccccc23)NC(=O)[C@H](CO)NC(=O)[C@@H](N)CC(=O)O)C(C)C)[C@@H](C)CC)CSSC[C@@H]2NC(=O)[C@@H](NC(=O)[C@H](CCCCN)NC(=O)[C@H](CC(N)=O)NC(=O)[C@H](C)NC(=O)[C@H](CC(C)C)NC(=O)[C@H](C)NC(=O)[C@H](CO)NC(=O)[C@H](Cc3ccc(O)cc3)NC(=O)[C@H](CC(C)C)NC(=O)[C@@H](N)CCC(N)=O)CSSC[C@H](NC(=O)CNC(=O)[C@H](C(C)C)NC(=O)[C@H](Cc3c[nH]cn3)NC2=O)C(=O)N[C@@H]([C@@H](C)O)C(=O)N[C@@H](CCCCN)C(=O)N[C@@H](CCCNC(=N)N)C(=O)N[C@@H](CO)C(=O)N[C@@H](CC(C)C)C(=O)N[C@@H](C)C(=O)N[C@@H](CCCNC(=N)N)C(=O)N[C@@H](Cc2ccccc2)C(=O)N[C@H](C(=O)O)CSSC[C@@H](C(=O)NCC(=O)N[C@@H](CCSC)C(=O)N[C@@H](CO)C(=O)N[C@H](C(=O)N[C@@H](Cc2c[nH]c3ccccc23)C(=O)N[C@@H](CO)C(=O)O)[C@@H](C)O)NC1=O [WT-RLX],"cAMP Assay EC50, Human RXFP3",[3],essentially inactive
same,"cAMP Assay EC50, Human RXFP4",[4],essentially inactive
same,Maximal inhibition of collagen type I expression vs TGF-β only treatment,[5],≥ 70%
B1,EC50,[6],0.46 ± 0.04 nM
same,EC50,[7],0.58 nM
